Assay results from patent US20140294898A1 (published 2014).
Positions of bridges follow the written chain, without caps; N, C: chain ends. Non-standard residues stand in square brackets, D forms with d. Oic = O=C(O)[C@@H]1C[C@@H]2CCCC[C@@H]2N1; Hyp = O=C(O)[C@@H]1C[C@@H](O)CN1; 4Pal = N[C@@H](Cc1ccncc1)C(=O)O; NMeNle = CCCC[C@H](NC)C(=O)O; Pro(4-NH2) = 4-aminoproline; Pro(4-Ph) = 4-phenylproline; Pip = O=C(O)[C@@H]1CCCCN1; NMeA = CN[C@@H](C)C(=O)O; dNMeA = CN[C@H](C)C(=O)O; Sar = CNCC(=O)O

These binders were tested against T1, hPDL1(19-239)-TVMV-His (human, UniProt Q9NZQ7 19-239) (assay: HTRF competition, PD-1-Ig binding to PD-L1-His).
T1 construct: The text says amino acids 18-239, the construct name says 19-239; Expressed in HEK293T cells; Used at 10 nM final in the HTRF assay; also called PD-L1-His; PD-L1-TVMV-His
T1 sequence (Q9NZQ7 other isoform, or with tags, fused parts or gaps limits assumed): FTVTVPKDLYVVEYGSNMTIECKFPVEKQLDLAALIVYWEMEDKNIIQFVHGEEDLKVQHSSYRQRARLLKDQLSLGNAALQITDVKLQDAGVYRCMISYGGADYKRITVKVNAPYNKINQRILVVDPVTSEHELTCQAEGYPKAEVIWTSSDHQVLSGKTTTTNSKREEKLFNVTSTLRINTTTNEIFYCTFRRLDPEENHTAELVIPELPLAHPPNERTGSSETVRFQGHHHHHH
Procedure: All binding studies were performed in an HTRF assay buffer consisting of dPBS supplemented with 0.1% (w/v) bovine serum albumin and 0.05% (v/v) Tween-20. […] PD-L1 fusion proteins from either human, cynomologous macaques, or mouse were used. HTRF detection was achieved using europium crypate-labeled anti-Ig monoclonal antibody (1 nM final) and allophycocyanin (APC) labeled anti-His monoclonal antibody (20 nM final). Antibodies were diluted in HTRF detection buffer and 5 μl was dispensed on top of binding reaction. The reaction was allowed to equilibrate for 30 minutes and signal (665 nm/620 nm ratio) was obtained using an EnVision fluorometer. […]
HTRF Experiments were performed essentially as outlined supra. Variant macrocyclic peptides were created as outlined herein.

Row | IC50 | Binder
1 | 40 nM | {CH2CO}-F[NMeA]N[Pro(4-NH2)]HL[Sar]WSW[NMeNle][NMeNle]RCG-NH2 (thioether N-14) [Compound No. 48]
2 | 33 nM | {CH2CO}-[4Pal][NMeA]NPHL[Sar]WSW[NMeNle][NMeNle]RCG-NH2 (thioether N-14; SMILES CCCC[C@H]1C(=O)N(C)[C@@H](CCCC)C(=O)N[C@@H](CCCNC(=N)N)C(=O)N[C@H](C(=O)NCC(N)=O)CSCC(=O)N[C@@H](Cc2ccncc2)C(=O)N(C)[C@@H](C)C(=O)N[C@@H](CC(N)=O)C(=O)N2CCC[C@H]2C(=O)N[C@@H](Cc2c[nH]cn2)C(=O)N[C@@H](CC(C)C)C(=O)N(C)CC(=O)N[C@@H](Cc2c[nH]c3ccccc23)C(=O)N[C@@H](CO)C(=O)N[C@@H](Cc2c[nH]c3ccccc23)C(=O)N1C) [Compound No. 39]
3 | 34 nM | {CH2CO}-F[NMeA]N[Pip]HL[Sar]WSW[NMeNle][NMeNle]RCG-NH2 (thioether N-14; SMILES CCCC[C@H]1C(=O)N(C)[C@@H](CCCC)C(=O)N[C@@H](CCCNC(=N)N)C(=O)N[C@H](C(=O)NCC(N)=O)CSCC(=O)N[C@@H](Cc2ccccc2)C(=O)N(C)[C@@H](C)C(=O)N[C@@H](CC(N)=O)C(=O)N2CCCC[C@H]2C(=O)N[C@@H](Cc2c[nH]cn2)C(=O)N[C@@H](CC(C)C)C(=O)N(C)CC(=O)N[C@@H](Cc2c[nH]c3ccccc23)C(=O)N[C@@H](CO)C(=O)N[C@@H](Cc2c[nH]c3ccccc23)C(=O)N1C) [Compound No. 44]
4 | 105 nM | {CH2CO}-F[NMeA]N[Oic]HL[Sar]WSW[NMeNle][NMeNle]RCG-NH2 (thioether N-14; SMILES CCCC[C@H]1C(=O)N(C)[C@@H](CCCC)C(=O)N[C@@H](CCCNC(=N)N)C(=O)N[C@H](C(=O)NCC(N)=O)CSCC(=O)N[C@@H](Cc2ccccc2)C(=O)N(C)[C@@H](C)C(=O)N[C@@H](CC(N)=O)C(=O)N2[C@@H](C[C@@H]3CCCC[C@@H]32)C(=O)N[C@@H](Cc2c[nH]cn2)C(=O)N[C@@H](CC(C)C)C(=O)N(C)CC(=O)N[C@@H](Cc2c[nH]c3ccccc23)C(=O)N[C@@H](CO)C(=O)N[C@@H](Cc2c[nH]c3ccccc23)C(=O)N1C) [Compound No. 45]
5 | 873 nM | {CH2CO}-F[NMeA]N[Pro(4-Ph)]HL[Sar]WSW[NMeNle][NMeNle]RCG-NH2 (thioether N-14) [Compound No. 46]
6 | 27 nM | {CH2CO}-F[NMeA]N[Hyp]HL[Sar]WSW[NMeNle][NMeNle]RCG-NH2 (thioether N-14; SMILES CCCC[C@H]1C(=O)N(C)[C@@H](CCCC)C(=O)N[C@@H](CCCNC(=N)N)C(=O)N[C@H](C(=O)NCC(N)=O)CSCC(=O)N[C@@H](Cc2ccccc2)C(=O)N(C)[C@@H](C)C(=O)N[C@@H](CC(N)=O)C(=O)N2C[C@H](O)C[C@H]2C(=O)N[C@@H](Cc2c[nH]cn2)C(=O)N[C@@H](CC(C)C)C(=O)N(C)CC(=O)N[C@@H](Cc2c[nH]c3ccccc23)C(=O)N[C@@H](CO)C(=O)N[C@@H](Cc2c[nH]c3ccccc23)C(=O)N1C) [Compound No. 47]

The binders below were run against T2, human PD-L1 (human, UniProt Q9NZQ7 19-239, limits assumed) (assay: cell binding assay, inhibition of Hu PD-L1/PD-1 binding).
T2 construct: also called Hu PD-L1; hPD-L1
T2 sequence (Q9NZQ7 19-239 limits assumed): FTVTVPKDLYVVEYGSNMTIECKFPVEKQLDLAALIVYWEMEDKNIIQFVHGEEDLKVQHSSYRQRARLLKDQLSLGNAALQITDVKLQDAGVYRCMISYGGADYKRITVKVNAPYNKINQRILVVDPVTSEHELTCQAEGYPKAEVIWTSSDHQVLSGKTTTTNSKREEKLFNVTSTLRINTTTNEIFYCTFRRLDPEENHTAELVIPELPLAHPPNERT

Row | Binder | IC50
7 | {CH2CO}-F[NMeA]APHL[Sar]WSW[NMeNle][NMeNle]RCG-NH2 (thioether N-14; SMILES CCCC[C@H]1C(=O)N(C)[C@@H](CCCC)C(=O)N[C@@H](CCCNC(=N)N)C(=O)N[C@H](C(=O)NCC(N)=O)CSCC(=O)N[C@@H](Cc2ccccc2)C(=O)N(C)[C@@H](C)C(=O)N[C@@H](C)C(=O)N2CCC[C@H]2C(=O)N[C@@H](Cc2c[nH]cn2)C(=O)N[C@@H](CC(C)C)C(=O)N(C)CC(=O)N[C@@H](Cc2c[nH]c3ccccc23)C(=O)N[C@@H](CO)C(=O)N[C@@H](Cc2c[nH]c3ccccc23)C(=O)N1C, macrocyclic peptide, Formula I series; also called Compound 8) [Compound No. 8] | 223 nM
8 | {CH2CO}-F[NMeA]NPHL[dNMeA]WSW[NMeNle][NMeNle]RCG-NH2 (thioether N-14; SMILES CCCC[C@H]1C(=O)N(C)[C@@H](CCCC)C(=O)N[C@@H](CCCNC(=N)N)C(=O)N[C@H](C(=O)NCC(N)=O)CSCC(=O)N[C@@H](Cc2ccccc2)C(=O)N(C)[C@@H](C)C(=O)N[C@@H](CC(N)=O)C(=O)N2CCC[C@H]2C(=O)N[C@@H](Cc2c[nH]cn2)C(=O)N[C@@H](CC(C)C)C(=O)N(C)[C@H](C)C(=O)N[C@@H](Cc2c[nH]c3ccccc23)C(=O)N[C@@H](CO)C(=O)N[C@@H](Cc2c[nH]c3ccccc23)C(=O)N1C, macrocyclic peptide, Formula I series; also called Compound 14) [Compound No. 14] | 242 nM
9 | {CH2CO}-F[NMeA]NPHL[Sar]WAW[NMeNle][NMeNle]RCG-NH2 (thioether N-14; SMILES CCCC[C@H]1C(=O)N(C)[C@@H](CCCC)C(=O)N[C@@H](CCCNC(=N)N)C(=O)N[C@H](C(=O)NCC(N)=O)CSCC(=O)N[C@@H](Cc2ccccc2)C(=O)N(C)[C@@H](C)C(=O)N[C@@H](CC(N)=O)C(=O)N2CCC[C@H]2C(=O)N[C@@H](Cc2c[nH]cn2)C(=O)N[C@@H](CC(C)C)C(=O)N(C)CC(=O)N[C@@H](Cc2c[nH]c3ccccc23)C(=O)N[C@@H](C)C(=O)N[C@@H](Cc2c[nH]c3ccccc23)C(=O)N1C, macrocyclic peptide, Formula I series; also called Compound 16) [Compound No. 16] | 13 nM
10 | {CH2CO}-F[NMeA]NPHL[NMeA]WSW[NMeNle][NMeNle]RCG-NH2 (thioether N-14; SMILES CCCC[C@H]1C(=O)N(C)[C@@H](CCCC)C(=O)N[C@@H](CCCNC(=N)N)C(=O)N[C@H](C(=O)NCC(N)=O)CSCC(=O)N[C@@H](Cc2ccccc2)C(=O)N(C)[C@@H](C)C(=O)N[C@@H](CC(N)=O)C(=O)N2CCC[C@H]2C(=O)N[C@@H](Cc2c[nH]cn2)C(=O)N[C@@H](CC(C)C)C(=O)N(C)[C@@H](C)C(=O)N[C@@H](Cc2c[nH]c3ccccc23)C(=O)N[C@@H](CO)C(=O)N[C@@H](Cc2c[nH]c3ccccc23)C(=O)N1C, macrocyclic peptide, Formula I series; also called Compound 13) [Compound No. 13] | 35 nM
11 | {CH2CO}-F[NMeA]NPAL[Sar]WSW[NMeNle][NMeNle]RCG-NH2 (thioether N-14; SMILES CCCC[C@H]1C(=O)N(C)[C@@H](CCCC)C(=O)N[C@@H](CCCNC(=N)N)C(=O)N[C@H](C(=O)NCC(N)=O)CSCC(=O)N[C@@H](Cc2ccccc2)C(=O)N(C)[C@@H](C)C(=O)N[C@@H](CC(N)=O)C(=O)N2CCC[C@H]2C(=O)N[C@@H](C)C(=O)N[C@@H](CC(C)C)C(=O)N(C)CC(=O)N[C@@H](Cc2c[nH]c3ccccc23)C(=O)N[C@@H](CO)C(=O)N[C@@H](Cc2c[nH]c3ccccc23)C(=O)N1C, macrocyclic peptide, Formula I series; also called Compound 10) [Compound No. 10] | 82 nM
12 | {CH2CO}-F[NMeA]NPHL[Sar]WSW[NMeNle][NMeNle]ACG-NH2 (thioether N-14; SMILES CCCC[C@H]1C(=O)N(C)[C@@H](CCCC)C(=O)N[C@@H](C)C(=O)N[C@H](C(=O)NCC(N)=O)CSCC(=O)N[C@@H](Cc2ccccc2)C(=O)N(C)[C@@H](C)C(=O)N[C@@H](CC(N)=O)C(=O)N2CCC[C@H]2C(=O)N[C@@H](Cc2c[nH]cn2)C(=O)N[C@@H](CC(C)C)C(=O)N(C)CC(=O)N[C@@H](Cc2c[nH]c3ccccc23)C(=O)N[C@@H](CO)C(=O)N[C@@H](Cc2c[nH]c3ccccc23)C(=O)N1C, macrocyclic peptide, Formula I series; also called Compound 22) [Compound No. 22] | 28 nM
13 | {CH2CO}-F[NMeA]NPHL[Sar]ASW[NMeNle][NMeNle]RCG-NH2 (thioether N-14; SMILES CCCC[C@H]1C(=O)N(C)[C@@H](CCCC)C(=O)N[C@@H](CCCNC(=N)N)C(=O)N[C@H](C(=O)NCC(N)=O)CSCC(=O)N[C@@H](Cc2ccccc2)C(=O)N(C)[C@@H](C)C(=O)N[C@@H](CC(N)=O)C(=O)N2CCC[C@H]2C(=O)N[C@@H](Cc2c[nH]cn2)C(=O)N[C@@H](CC(C)C)C(=O)N(C)CC(=O)N[C@@H](C)C(=O)N[C@@H](CO)C(=O)N[C@@H](Cc2c[nH]c3ccccc23)C(=O)N1C, macrocyclic peptide, Formula I series; also called Compound 15) [Compound No. 15] | 1910 nM

Results, then the binder that gave them:

Row | IC50 | Binder
14 | 3 nM | {CH2CO}-Y[NMeA]NPHL[Sar]WSW[NMeNle][NMeNle]RCG-NH2 (thioether N-14; SMILES CCCC[C@H]1C(=O)N(C)[C@@H](CCCC)C(=O)N[C@@H](CCCNC(=N)N)C(=O)N[C@H](C(=O)NCC(N)=O)CSCC(=O)N[C@@H](Cc2ccc(O)cc2)C(=O)N(C)[C@@H](C)C(=O)N[C@@H](CC(N)=O)C(=O)N2CCC[C@H]2C(=O)N[C@@H](Cc2c[nH]cn2)C(=O)N[C@@H](CC(C)C)C(=O)N(C)CC(=O)N[C@@H](Cc2c[nH]c3ccccc23)C(=O)N[C@@H](CO)C(=O)N[C@@H](Cc2c[nH]c3ccccc23)C(=O)N1C, macrocyclic peptide, Formula I series; also called Compound 30) [Compound No. 30]
15 | 19 nM | {CH2CO}-W[NMeA]NPHL[Sar]WSW[NMeNle][NMeNle]RCG-NH2 (thioether N-14; SMILES CCCC[C@H]1C(=O)N(C)[C@@H](CCCC)C(=O)N[C@@H](CCCNC(=N)N)C(=O)N[C@H](C(=O)NCC(N)=O)CSCC(=O)N[C@@H](Cc2c[nH]c3ccccc23)C(=O)N(C)[C@@H](C)C(=O)N[C@@H](CC(N)=O)C(=O)N2CCC[C@H]2C(=O)N[C@@H](Cc2c[nH]cn2)C(=O)N[C@@H](CC(C)C)C(=O)N(C)CC(=O)N[C@@H](Cc2c[nH]c3ccccc23)C(=O)N[C@@H](CO)C(=O)N[C@@H](Cc2c[nH]c3ccccc23)C(=O)N1C, macrocyclic peptide, Formula I series; also called Compound 25) [Compound No. 25]
